We go through three molecules from publication PMC12412652 (2025).

Experiment in all cases: BLI
The target of assay [1] is T1, BFL-1 (UniProt Q16548 1-175, biotin).
T1 chain: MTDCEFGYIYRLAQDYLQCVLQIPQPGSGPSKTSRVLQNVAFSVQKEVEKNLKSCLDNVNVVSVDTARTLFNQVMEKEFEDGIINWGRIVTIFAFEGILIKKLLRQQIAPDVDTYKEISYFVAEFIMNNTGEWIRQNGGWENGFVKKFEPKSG

In assay [2] the target is BCL-2 (UniProt P10415 1-239, biotin).
Assay [3] deals with T2, MBP-BAK 16-186, biotinylated (Avi tag, 6-histidine tag) (human, UniProt Q16611 16-186, biotin on the Avi tag (enzymatic, BirA)).
T2 chain: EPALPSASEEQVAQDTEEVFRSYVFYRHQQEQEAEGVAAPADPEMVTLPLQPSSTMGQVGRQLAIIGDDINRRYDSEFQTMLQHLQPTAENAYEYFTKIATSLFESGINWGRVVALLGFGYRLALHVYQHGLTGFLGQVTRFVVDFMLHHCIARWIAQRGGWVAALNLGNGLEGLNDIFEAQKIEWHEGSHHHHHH

Assay [4] has as its target MBP-BAK 16-186, biotinylated (Avi tag, 6-histidine tag) (human, UniProt Q16611 16-186, biotin on the Avi tag (enzymatic, BirA)). The source holds these as a separate data set.
In assay [5] the target is MBP-BAX 1-166 C62S C126S, biotinylated (Avi tag, 6-histidine tag) (human, UniProt Q07812 1-166, C62S | C126S, biotin on the Avi tag (enzymatic, BirA)).

Broadly, the Kd is the concentration at which binding is half-saturated.

Chain of BCL-2 (P10415 1-207): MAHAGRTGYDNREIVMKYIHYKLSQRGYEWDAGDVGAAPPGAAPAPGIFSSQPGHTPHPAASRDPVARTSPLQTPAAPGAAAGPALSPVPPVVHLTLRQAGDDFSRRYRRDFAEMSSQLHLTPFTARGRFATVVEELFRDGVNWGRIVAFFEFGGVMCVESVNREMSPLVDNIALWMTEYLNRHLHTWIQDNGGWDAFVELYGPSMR
Chain of MBP-BAX 1-166 C62S C126S, biotinylated (Avi tag, 6-histidine tag) (Q07812 1-166 C62S/C126S): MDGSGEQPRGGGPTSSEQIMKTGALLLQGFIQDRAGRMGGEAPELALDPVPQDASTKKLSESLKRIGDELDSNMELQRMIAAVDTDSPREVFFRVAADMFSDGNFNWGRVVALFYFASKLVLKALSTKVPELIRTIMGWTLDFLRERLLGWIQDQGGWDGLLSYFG

B1: αBAX2 (designed binder)
chain: GADPKKVLDKARDQAENRVRELRQKLTELYKEARKLDLTQEERRKLIKRYKAAMNEAIKDIHEAIEQAKEEADKLKDAGLVNEQQLKELKQRLNEKALAAAFRASGDTWHARRKLQYG
Turning to B1, the dissociation constant (Kd) is 300 nM in assay [1], 2300 nM in assay [2] and more than 9000 nM in assay [3].

B2: αBAX1 (designed binder)
chain: GADPKKVLDKARDQAENRVRELAQKLEELYKEARKLDLTQEERRKLEKRYKAAMEEAIKDIHEAIEQAKEEADKLKDAGLVNEQQLKELKQRLNELAIAAAFRASGDTIEFRRKLQYG
For B2, the equilibrium dissociation constant (Kd) in assay [4] is more than 20000 nM; in assay [2], 3500 nM; in assay [5] it was 1.43 nM.

B3: BAX-CDP01 (BAX-targeting computationally designed protein 01) (designed binder)
chain: GADPKKVLDKARDQAENRVRELAQKLEELYKEARKLDLTQEERRKLEKRYKAAMEEAIKDIREAIRQAKQEADKLKKAGLVNSQQLKELKQRLNELAIAAALRAIGDAIEFRRKLQYG
Turning to B3, the Kd came out at 3100 nM in assay [4], 23 nM in assay [1] and 50 nM in assay [2].
